Assay results published in US20140193378A1 (UNIVERSITY OF MIAMI, published 2014).
Non-standard residues stand in square brackets, D forms with d. No end group written: not given here. *: point of attachment. Desaminotyrosyl = O=C(CCc1ccc(O)cc1)*; NMeY = CN[C@@H](Cc1ccc(O)cc1)C(=O)O; hArg = N=C(N)NCCCC[C@H](N)C(=O)O; Nle = CCCC[C@H](N)C(=O)O; Orn = NCCC[C@H](N)C(=O)O; Abu = CC[C@H](N)C(=O)O; Aoc = NCCCCCCCC(=O)O; Ava = NCCCCC(=O)O; GABA = NCCCC(=O)O

B1: P-21301 [N-Me-Tyr^1, Orn^12, Abu^15, Orn^21, Nle^27, Asp^28, Amc^30]hGHRH(1-30)NH2 (peptide)
chain: [NMeY]ADAIFTNSYR[Orn]VL[Abu]QLSAR[Orn]LLQDI[Nle]DR[Aoc]-NH2
modifications: N-terminus assumed
SMILES: CCCC[C@H](NC(=O)[C@@H](NC(=O)[C@H](CC(=O)O)NC(=O)[C@H](CCC(N)=O)NC(=O)[C@H](CC(C)C)NC(=O)[C@H](CC(C)C)NC(=O)[C@H](CCCN)NC(=O)[C@H](CCCNC(=N)N)NC(=O)[C@H](C)NC(=O)[C@H](CO)NC(=O)[C@H](CC(C)C)NC(=O)[C@H](CCC(N)=O)NC(=O)[C@H](CC)NC(=O)[C@H](CC(C)C)NC(=O)[C@@H](NC(=O)[C@H](CCCN)NC(=O)[C@H](CCCNC(=N)N)NC(=O)[C@H](Cc1ccc(O)cc1)NC(=O)[C@H](CO)NC(=O)[C@H](CC(N)=O)NC(=O)[C@@H](NC(=O)[C@H](Cc1ccccc1)NC(=O)[C@@H](NC(=O)[C@H](C)NC(=O)[C@H](CC(=O)O)NC(=O)[C@H](C)NC(=O)[C@H](Cc1ccc(O)cc1)NC)[C@@H](C)CC)[C@@H](C)O)C(C)C)[C@@H](C)CC)C(=O)N[C@@H](CC(=O)O)C(=O)N[C@@H](CCCNC(=N)N)C(=O)NCCCCCCCC(N)=O
B2: P-25503 [N-Me-Tyr^1, Abu^2, Orn^12, Abu^15, Orn^21, Nle^27, Gab^30]hGHRH(1-30)NH2 (peptide)
chain: [NMeY][Abu]DAIFTNSYR[Orn]VL[Abu]QLSAR[Orn]LLQDI[Nle]SR[GABA]-NH2
modifications: N-terminus assumed
SMILES: CCCC[C@H](NC(=O)[C@@H](NC(=O)[C@H](CC(=O)O)NC(=O)[C@H](CCC(N)=O)NC(=O)[C@H](CC(C)C)NC(=O)[C@H](CC(C)C)NC(=O)[C@H](CCCN)NC(=O)[C@H](CCCNC(=N)N)NC(=O)[C@H](C)NC(=O)[C@H](CO)NC(=O)[C@H](CC(C)C)NC(=O)[C@H](CCC(N)=O)NC(=O)[C@H](CC)NC(=O)[C@H](CC(C)C)NC(=O)[C@@H](NC(=O)[C@H](CCCN)NC(=O)[C@H](CCCNC(=N)N)NC(=O)[C@H](Cc1ccc(O)cc1)NC(=O)[C@H](CO)NC(=O)[C@H](CC(N)=O)NC(=O)[C@@H](NC(=O)[C@H](Cc1ccccc1)NC(=O)[C@@H](NC(=O)[C@H](C)NC(=O)[C@H](CC(=O)O)NC(=O)[C@H](CC)NC(=O)[C@H](Cc1ccc(O)cc1)NC)[C@@H](C)CC)[C@@H](C)O)C(C)C)[C@@H](C)CC)C(=O)N[C@@H](CO)C(=O)N[C@@H](CCCNC(=N)N)C(=O)NCCCC(N)=O
B3: P-27413 [Dat^1, Gln^8, His^11, Orn^12, Abu^15, His^20, Orn^21, Nle^27, Asp^28]hGHRH(1-29)NH-CH3 (peptide)
chain: [Desaminotyrosyl]ADAIFTQSYH[Orn]VL[Abu]QLSAH[Orn]LLQDI[Nle]DR-NHMe
SMILES: CCCC[C@H](NC(=O)[C@@H](NC(=O)[C@H](CC(=O)O)NC(=O)[C@H](CCC(N)=O)NC(=O)[C@H](CC(C)C)NC(=O)[C@H](CC(C)C)NC(=O)[C@H](CCCN)NC(=O)[C@H](Cc1c[nH]cn1)NC(=O)[C@H](C)NC(=O)[C@H](CO)NC(=O)[C@H](CC(C)C)NC(=O)[C@H](CCC(N)=O)NC(=O)[C@H](CC)NC(=O)[C@H](CC(C)C)NC(=O)[C@@H](NC(=O)[C@H](CCCN)NC(=O)[C@H](Cc1c[nH]cn1)NC(=O)[C@H](Cc1ccc(O)cc1)NC(=O)[C@H](CO)NC(=O)[C@H](CCC(N)=O)NC(=O)[C@@H](NC(=O)[C@H](Cc1ccccc1)NC(=O)[C@@H](NC(=O)[C@H](C)NC(=O)[C@H](CC(=O)O)NC(=O)[C@H](C)NC(=O)CCc1ccc(O)cc1)[C@@H](C)CC)[C@@H](C)O)C(C)C)[C@@H](C)CC)C(=O)N[C@@H](CC(=O)O)C(=O)N[C@@H](CCCNC(=N)N)C(=O)NC
B4: P-23252 [Dat^1-D-Ala^2, Orn^12, Abu^15, Orn^21, Nle^27, Asp^28, Har^30]hGHRH(1-30)NH2 (peptide)
peptide: [Desaminotyrosyl][dA]DAIFTNSYR[Orn]VL[Abu]QLSAR[Orn]LLQDI[Nle]DR[hArg]-NH2
SMILES: CCCC[C@H](NC(=O)[C@@H](NC(=O)[C@H](CC(=O)O)NC(=O)[C@H](CCC(N)=O)NC(=O)[C@H](CC(C)C)NC(=O)[C@H](CC(C)C)NC(=O)[C@H](CCCN)NC(=O)[C@H](CCCNC(=N)N)NC(=O)[C@H](C)NC(=O)[C@H](CO)NC(=O)[C@H](CC(C)C)NC(=O)[C@H](CCC(N)=O)NC(=O)[C@H](CC)NC(=O)[C@H](CC(C)C)NC(=O)[C@@H](NC(=O)[C@H](CCCN)NC(=O)[C@H](CCCNC(=N)N)NC(=O)[C@H](Cc1ccc(O)cc1)NC(=O)[C@H](CO)NC(=O)[C@H](CC(N)=O)NC(=O)[C@@H](NC(=O)[C@H](Cc1ccccc1)NC(=O)[C@@H](NC(=O)[C@H](C)NC(=O)[C@H](CC(=O)O)NC(=O)[C@@H](C)NC(=O)CCc1ccc(O)cc1)[C@@H](C)CC)[C@@H](C)O)C(C)C)[C@@H](C)CC)C(=O)N[C@@H](CC(=O)O)C(=O)N[C@@H](CCCNC(=N)N)C(=O)N[C@@H](CCCCNC(=N)N)C(N)=O
notes: also called Peptide 23252
B5: P-21304 [Dat^1, D-Ala^2, Gln^8, Orn^12, Abu^15, Orn^21, Nle^27, Asp^28, Amc^30]hGHRH(1-30)NH2 (peptide)
peptide: [Desaminotyrosyl][dA]DAIFTQSYR[Orn]VL[Abu]QLSAR[Orn]LLQDI[Nle]DR[Aoc]-NH2
SMILES: CCCC[C@H](NC(=O)[C@@H](NC(=O)[C@H](CC(=O)O)NC(=O)[C@H](CCC(N)=O)NC(=O)[C@H](CC(C)C)NC(=O)[C@H](CC(C)C)NC(=O)[C@H](CCCN)NC(=O)[C@H](CCCNC(=N)N)NC(=O)[C@H](C)NC(=O)[C@H](CO)NC(=O)[C@H](CC(C)C)NC(=O)[C@H](CCC(N)=O)NC(=O)[C@H](CC)NC(=O)[C@H](CC(C)C)NC(=O)[C@@H](NC(=O)[C@H](CCCN)NC(=O)[C@H](CCCNC(=N)N)NC(=O)[C@H](Cc1ccc(O)cc1)NC(=O)[C@H](CO)NC(=O)[C@H](CCC(N)=O)NC(=O)[C@@H](NC(=O)[C@H](Cc1ccccc1)NC(=O)[C@@H](NC(=O)[C@H](C)NC(=O)[C@H](CC(=O)O)NC(=O)[C@@H](C)NC(=O)CCc1ccc(O)cc1)[C@@H](C)CC)[C@@H](C)O)C(C)C)[C@@H](C)CC)C(=O)N[C@@H](CC(=O)O)C(=O)N[C@@H](CCCNC(=N)N)C(=O)NCCCCCCCC(N)=O
notes: also called Peptide 21304
B6: P-23254 [Dat^1, D-Ala^2, Thr^8, Orn^12, Abu^15, Orn^21, Nle^27, Asp^28, Har^30]hGHRH(1-30)NH2 (peptide)
peptide: [Desaminotyrosyl][dA]DAIFTTSYR[Orn]VL[Abu]QLSAR[Orn]LLQDI[Nle]DR[hArg]-NH2
SMILES: CCCC[C@H](NC(=O)[C@@H](NC(=O)[C@H](CC(=O)O)NC(=O)[C@H](CCC(N)=O)NC(=O)[C@H](CC(C)C)NC(=O)[C@H](CC(C)C)NC(=O)[C@H](CCCN)NC(=O)[C@H](CCCNC(=N)N)NC(=O)[C@H](C)NC(=O)[C@H](CO)NC(=O)[C@H](CC(C)C)NC(=O)[C@H](CCC(N)=O)NC(=O)[C@H](CC)NC(=O)[C@H](CC(C)C)NC(=O)[C@@H](NC(=O)[C@H](CCCN)NC(=O)[C@H](CCCNC(=N)N)NC(=O)[C@H](Cc1ccc(O)cc1)NC(=O)[C@H](CO)NC(=O)[C@@H](NC(=O)[C@@H](NC(=O)[C@H](Cc1ccccc1)NC(=O)[C@@H](NC(=O)[C@H](C)NC(=O)[C@H](CC(=O)O)NC(=O)[C@@H](C)NC(=O)CCc1ccc(O)cc1)[C@@H](C)CC)[C@@H](C)O)[C@@H](C)O)C(C)C)[C@@H](C)CC)C(=O)N[C@@H](CC(=O)O)C(=O)N[C@@H](CCCNC(=N)N)C(=O)N[C@@H](CCCCNC(=N)N)C(N)=O
notes: also called Peptide 23254
B7: P-23256 [Dat^1, D-Ala^2, Ala^8, Orn^12, Abu^15, Orn^21, Nle^27, Asp^28, Har^30]hGHRH(1-30)NH2 (peptide)
peptide: [Desaminotyrosyl][dA]DAIFTASYR[Orn]VL[Abu]QLSAR[Orn]LLQDI[Nle]DR[hArg]-NH2
SMILES: CCCC[C@H](NC(=O)[C@@H](NC(=O)[C@H](CC(=O)O)NC(=O)[C@H](CCC(N)=O)NC(=O)[C@H](CC(C)C)NC(=O)[C@H](CC(C)C)NC(=O)[C@H](CCCN)NC(=O)[C@H](CCCNC(=N)N)NC(=O)[C@H](C)NC(=O)[C@H](CO)NC(=O)[C@H](CC(C)C)NC(=O)[C@H](CCC(N)=O)NC(=O)[C@H](CC)NC(=O)[C@H](CC(C)C)NC(=O)[C@@H](NC(=O)[C@H](CCCN)NC(=O)[C@H](CCCNC(=N)N)NC(=O)[C@H](Cc1ccc(O)cc1)NC(=O)[C@H](CO)NC(=O)[C@H](C)NC(=O)[C@@H](NC(=O)[C@H](Cc1ccccc1)NC(=O)[C@@H](NC(=O)[C@H](C)NC(=O)[C@H](CC(=O)O)NC(=O)[C@@H](C)NC(=O)CCc1ccc(O)cc1)[C@@H](C)CC)[C@@H](C)O)C(C)C)[C@@H](C)CC)C(=O)N[C@@H](CC(=O)O)C(=O)N[C@@H](CCCNC(=N)N)C(=O)N[C@@H](CCCCNC(=N)N)C(N)=O
notes: also called Peptide 23256

Each molecule was assayed against T1, human GHRH receptor (human pituitary membrane homogenates) (human) (UniProt Q02643) (assay: radioligand competition vs 125I-JV-1-42 (0.2 nM), human pituitary membranes).
T1 sequence (looked up): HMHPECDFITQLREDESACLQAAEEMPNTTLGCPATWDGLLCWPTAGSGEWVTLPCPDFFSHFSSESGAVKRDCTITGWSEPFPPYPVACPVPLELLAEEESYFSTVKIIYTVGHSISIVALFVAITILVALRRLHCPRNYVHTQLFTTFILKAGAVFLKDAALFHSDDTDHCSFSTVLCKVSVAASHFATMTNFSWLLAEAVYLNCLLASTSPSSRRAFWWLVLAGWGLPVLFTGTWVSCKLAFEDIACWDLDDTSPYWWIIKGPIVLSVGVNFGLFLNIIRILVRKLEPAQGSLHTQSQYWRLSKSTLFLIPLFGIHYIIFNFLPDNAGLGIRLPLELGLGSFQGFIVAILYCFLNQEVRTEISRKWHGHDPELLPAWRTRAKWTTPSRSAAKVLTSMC

Molecule	Relative affinity (Binding potency) vs JI-38 [fold]
P-27406 [N-Me-Tyr^1, Gln^8, Orn^12, Abu^15, Orn^21, Nle^27, Asp^28]hGHRH(1-29)NH-CH3 (peptide)	14.5
P-27407 [Dat^1, Gln^8, Orn^12, Abu^15, Orn^21, Nle^27, Asp^28]hGHRH(1-29)NH-CH3 (peptide)	1.45
[NMeY]ADAIFTQSYR[Orn]VL[Abu]QLSAR[Orn]LLQDI[Nle]DR[Ava]-NH2 (peptide, from a related filing) [P-22325 [N-Me-Tyr^1, Gln^8, Orn^12, Abu^15, Orn^21, Nle^27, Asp^28, Apa^30]hGHRH(1-30)NH2]	1.14

Target: T2, human GHRH receptor (human pituitary membrane homogenates) (human), Q02643
T2 chain: T1 sequence (looked up)
Test: as above

Molecule	IC50 [nM]	Relative affinity (Binding potency) vs JI-38 [fold]
B1	2.99	1.45
B2	1.18	3.67
B3	2.45	1.78

What follows are molecules tested against T3, human GHRH receptor (human pituitary membrane homogenates) (human, UniProt Q02643 23-423) (assay: radioligand competition vs [His1,125I-Tyr10,Nle27]hGHRH(1-32)NH2 (0.2 nM), human pituitary membranes).
T3 construct: whole, on cells; Native receptor in human pituitary membrane homogenates, not on intact cells; also called hGHRH receptor
T3 sequence (looked up): T1 sequence (looked up)
Excerpt: Normal human pituitaries were purchased from the National Hormone and Peptide Program (A. F. Parlow, Los Angeles, County Harbor—UCLA Medical Center, Torrance, Calif.).

Molecule	Relative affinity (Binding potency) vs GHRH [fold]	Relative affinity (Binding potency) vs JI-38 [fold]
B4	42.3	13.9
B5	74	24.4
B6	84.5	27.8
B7	148	48.7
